Assay results taken from patent US20240132599A1 (GAMMADELTA THERAPEUTICS, published 2024).
Numbering of substitutions follows the chain as printed.

B1: ADT1-4-139 (antibody, IgG1, V domains shown)
VH: EVQLQQSGPGLVKPSQTLSLTCAISGDSVSSKSAAWNWIRQSPSRGLEWLGRTYYRSKWSTDYAASVKSRITINPDTSKNQLSLQLNSVTPEDTAVYYCARTWVGYVDYWGQGTLVTVSS
VL: DIQMTQSPPALSASVGDRVTITCRASQDINDWLAWYQHKPGKAPKLLIYDASSLESGVPLRFSGSGSGTEFTLTISSLQPDDFATYYCQQGYSTPQLTFGQGTRLEIK
notes: IgG1
B2: ADT1-4 (parental) (antibody, IgG1, V domains shown)
VH: B1 VH with E1Q, V104S, Y109V
VL: B1 VL with L60S, G91S, L97V
notes: IgG1; also called G04; 1245_P02_G04
B3: ADT1-7 (parental) (antibody, IgG1, V domains shown)
VH: QVQLVESGGGLVKPGGSLRLSCAASGFTFSDYYMSWIRQAPGKGLEWVSYISSSGSTIYYADSVKGRFTISRDNAKNSLYLQMNSLRAEDTAVYYCARVDYADAFDIWGQGTLVTVSS
VL: DIQMTQSPSSLSASVGDRVTIACRAGQSIGTYLNWYQQKPGKAPKLLIYVASSLQSGVPSRFSGSGSGTEFTLTISSLQPEDFATYYCQQSYSTLLTFGRGTKVEIK
notes: IgG1; also called E07; 1245_P01_E07
B4: ADT1-7-3 (antibody, IgG1, V domains shown)
VH: B3 VH with Q1E, D100S, D103E
VL: B3 VL with T94G, L96D
notes: IgG1
B5: ADT1-7-20 (antibody, IgG1, V domains shown)
VH: B3 VH with Q1E, A102Q, D103E
VL: B3 VL with T94G, L96D
notes: IgG1
B6: ADT1-7-61 (antibody, IgG1, V domains shown)
VH: B3 VH with Q1E, V99D, A102D
VL: B3 VL with Y92A, T94E
notes: IgG1
B7: ADT1-4-2/ADT3-2 (bispecific antibody)
heavy: EVQLQQSGPGLVKPSQTLSLTCAISGDSVSSKSAAWNWIRQSPSRGLEWLGRTYYRSKWSTDYAASVKSRITINPDTSKNQLSLQLNSVTPEDTAVYYCARTWVGYVDRWGQGTLVTVSSASTKGPSVFPLAPSSKSTSGGTAALGCLVKDYFPEPVTVSWNSGALTSGVHTFPAVLQSSGLYSLSSVVTVPSSSLGTQTYICNVNHKPSNTKVDKKVEPKSCDKTHTCPPCPAPELAGAPSVFLFPPKPKDTLMISRTPEVTCVVVDVSHEDPEVKFNWYVDGVEVHNAKTKPREEQYNSTYRVVSVLTVLHQDWLNGKEYKCKVSNKALPAPIEKTISKAKGQPREPQVYTLPPSRDELEEGPVSLTCLVKGFYPSDIAVEWESTYGPENNYKTTPPVLDSDGSFFLYSKLTVSYWRWYKGNVFSCSVMHEALHNHYTQKSLSLSPG
light: DIQMTQSPPALSASVGDRVTITCRASQDINDWLAWYQHKPGKAPKLLIYDASSLESGVPLRFSGSGSGTEFTLTISSLQPDDFATYYCQQKYSAPQVTFGQGTRLEIKRTVAAPSVFIFPPSDEQLKSGTASVVCLLNNFYPREAKVQWKVDNALQSGNSQESVTEQDSKDSTYSLSSTLTLSKADYEKHKVYACEVTHQGLSSPVTKSFNRGEC
notes: mAb2; also called ADT1-4-2 × LEE; ADT1-4-2xLEE
B8: ADT1-4-2/ADT3-6 (bispecific antibody)
heavy: B7 heavy with T387N, Y388G, G389Q
light: B7 light
notes: mAb2; also called ADT1-4-2xLEE2
B9: ADT1-4-2/ADT3-7 (bispecific antibody)
heavy: B7 heavy with Y421Q, K422Q
light: B7 light
notes: mAb2; also called ADT1-4-2xLEE3
B10: ADT1-4-6/ADT3-2 (bispecific antibody, V domains shown)
VH: B1 VH with V104A, V107P, Y109V
VL: B1 VL with G91K, S93K, L97V
notes: mAb2, human IgG1; light constant region not tied; also called ADT1-4-6 × LEE
B11: ADT1-4-138/ADT3-2 (bispecific antibody, V domains shown)
VH: B1 VH with V104A, G105D, Y109V
VL: B1 VL with L60S, G91R, P95D, L97V
notes: mAb2, human IgG1; light constant region not tied; also called ADT1-4-138 × LEE; ADT1-4-138xADT3-2
B12: ADT1-4-2/ADT3-1 (bispecific antibody)
heavy: B7 heavy with L361T, E362D, E363D
light: B7 light
notes: mAb2; also called ADT1-4-2xFS1-67
B13: ADT1-4-2/ADT3-4 (bispecific antibody)
heavy: B7 heavy with L361T, E363S, A381V, T387K, Y388F, Y417N, W418L, Y421T, N424H
light: B7 light
notes: mAb2; also called ADT1-4-2x747
B14: ADT1-4/ADT3-1 (bispecific antibody, human IgG1, V domains shown)
VH: B1 VH with E1Q, V104S, Y109V
VL: DIQMTQSPPALSASVGDRVTITCRASQDINDWLAWYQHKPGKAPKLLIYDASSLESGVPSRFSGSGSGTEFTLTISSLQPDDFATYYCQQSYSTPQVTFGQGTRLEIKR
notes: mAb2; also called G04 × FS1-67; G04 FS1-67
B15: ADT1-4-2/ADT3-3 (bispecific antibody, human IgG1, kappa)
heavy: EVQLQQSGPGLVKPSQTLSLTCAISGDSVSSKSAAWNWIRQSPSRGLEWLGRTYYRSKWSTDYAASVKSRITINPDTSKNQLSLQLNSVTPEDTAVYYCARTWVGYVDRWGQGTLVTVSSASTKGPSVFPLAPSSKSTSGGTAALGCLVKDYFPEPVTVSWNSGALTSGVHTFPAVLQSSGLYSLSSVVTVPSSSLGTQTYICNVNHKPSNTKVDKKVEPKSCDKTHTCPPCPAPELAGAPSVFLFPPKPKDTLMISRTPEVTCVVVDVSHEDPEVKFNWYVDGVEVHNAKTKPREEQYNSTYRVVSVLTVLHQDWLNGKEYKCKVSNKALPAPIEKTISKAKGQPREPQVYTLPPSRDELDEGGPVSLTCLVKGFYPSDIAVEWESTYGPENNYKTTPPVLDSDGSFFLYSKLTVSYWRWVKGNVFSCSVMHEALHNHYTQKSLSLSPG
light: B7 light
notes: also called ADT1-4-2xFS1-65

Columns and labels:
[1] = target: T1, cyno antigen DV1/GV77, recombinant cynomolgus Vδ1 γδ TCR heterodimer (cynomolgus monkey); assay: DELFIA ELISA, cyno antigen, heat map; all column labels read ADT1-4-110, clone assigned by the HC/LC CDR3 pair as in FIG. 4A and FIGS. 22-23
T1 construct: also called cyno TRDV1; Cyno DV1-77; not shown: Delta-chain CDR3/J and constant part, the GV77 gamma chain, and any tags

[2] = target: T2, L1 (DV1-GV4), recombinant soluble human Vδ1/Vγ4 γδ TCR heterodimer (human); assay: SPR
T2 construct: Biotinylated in the DELFIA ranking assay; also called human TRDV1; human Vδ1 antigen

[3] = target: T3, human EGFR, recombinant protein (human, UniProt P00533 25-645); assay: SPR (Reichert 4SPR): antibody captured on a Protein A chip, human EGFR flowed at 100 nM
T3 construct: Bought protein; also called human EGFR antigen

[4] = target: T2, L1 (DV1-GV4), recombinant soluble human …; assay: SPR (Reichert 4SPR), antibody on Protein A chip, human Vδ1 antigen as analyte, 1:1 fit, mean of two replicates (Avg KD)
Description: (§1) The binding affinity of the antibodies to target (i.e. the Vδ1 chain of a γ TCR) is established by SPR analysis using a Reichert 4SPR instrument (Reichert Technologies).
(§2) The binding interaction of Vδ1 and the affinity-matured mAbs were modelled according to Langmuir 1:1 binding.

[5] = target: T4, Vδ1 TCR on human Vδ1-positive γδ T cells (human, UniProt A0A1B0GX56 22-115); assay: flow cytometry binding to γδ T cells, Donor 1 (ATS006); column head printed IC50 (nM), the text calls it EC50 of binding; same value in the table of FIG. 11C
T4 construct: also called Vδ1 γδ T-cells; cell surface Vδ1 TCR
Protocol: (§3) (FIGS. 11A-11B) The level of binding by the V61 mAbs to two γδ T cell donors, ATS006 (FIG. 11A) and TS164 (FIG. 11B). γδ T cells were stained with varying concentrations of Vδ1 mAbs, followed by a fluorescent anti-human IgG detection antibody (xxx). All incubation steps were performed at 4° C. and mAb binding was determined using flow cytometry to measure the median level of fluorescence. Logarithmic four parameter dose-response curves were fitted using GraphPad Prism 9.
(§4) A range of target cells were assayed to determine the specificity and affinity of Vδ1 mAb binding. This included expanded skin-derived Vδ1 γδ T-cells, HEK293T cells, Raji cells, and multiple leukocyte subsets within human primary blood mononuclear cells. Adherent or semi-adherent cells (skin-derived Vδ1 γδ T-cells, HEK293T) were detached from tissue culture flask and resuspended in PBS. Similarly, non-adherent cell types (Raji, PBMC), were harvested and resuspended in PBS. Cells were seeded at a final density of 100,000 cells per well in v-bottom 96-well plates. Cells underwent centrifugation and the cell pellets were resuspended in FcR blocking reagent according to the manufacturer's instructions, and incubated for 20 minutes at 4C prior to a further wash. […] To determine the quantity of mAb bound to the cell surface, the cells were then stained with a murine anti-human IgG secondary antibody, conjugated to APC (product code . . . , dilution: 1:100). For Vδ1 γδ T-cells, HEK293T and Raji, the cells were also stained solely with a viability dye.

[6] = target: T4, Vδ1 TCR on human Vδ1-positive γδ T cells; assay: flow cytometry binding to γδ T cells, Donor 2 (TS164); column head printed IC50 (nM), the text calls it EC50 of binding; same value in the table of FIG. 11C
Protocol: as §3, §4

[7] = target: T2, L1 (DV1-GV4), recombinant soluble human …; assay: SPR (Reichert 4SPR), antibody on Protein A chip, human Vδ1 antigen as analyte, 1:1 fit, mean of two replicates (Avg KD); remark: listed apart in the source
Description: as §1, §2

[8] = target: T4, Vδ1 TCR on human Vδ1-positive γδ T cells; assay: flow cytometry on skin-derived Vδ1+ cells, 20 min at 4 C, anti-human Fc secondary
Protocol: Cells were washed and stained with an anti-human Fc secondary antibody (Jackson Immunoresearch) and a viability dye for dead cells (eFlour 780, Invitrogen) for 20 minutes at 4° C. The cells were washed in FACS buffer and resuspended in Cell Fix (BD sciences) before analysis on a MACSQuant Analyser 10 flow cytometer (Miltenyi).

[9] = target: T4, Vδ1 TCR on human Vδ1-positive γδ T cells; assay: flow cytometry on primary Vδ1 γδ T cells, 4 C, anti-human IgG-APC secondary, median fluorescence
Protocol: Target cells were stained with varying concentrations of antibody, followed by a fluorescent anti-human IgG detection antibody. All incubation steps were performed at 4° C. and mAb binding was determined using flow cytometry to measure the median level of fluorescence. Logarithmic four parameter dose-response curves were fitted using GraphPad Prism 9.
Target cells were detached from tissue culture flask, resuspended in PBS and seeded at a final density of 100,000 cells per well in v-bottom 96-well plates. Cells underwent centrifugation and the cell pellets were resuspended in FcR blocking reagent according to the manufacturer's instructions, and incubated for 20 minutes at 4C prior to a further wash. Antibodies were diluted to 500 nM in PBS and serially diluted 1:10 in PBS to 50 μM, and added to the cells, followed by a 20-minute incubation at 4C. To determine the quantity of mAb bound to the cell surface, the cells were then stained with a murine anti-human IgG secondary antibody, conjugated to APC (dilution: 1:100) in addition to a viability dye. Following 20-minute incubation at 4C, the cells were washed twice, and fluorescence measured using the MACSQuant.

[10] = target: T3, human EGFR, recombinant protein; assay: SPR
EGFR on HT-29 cells = target: T5, EGFR on HT-29 cells (human, UniProt P00533); assay: flow cytometry on HT-29 cells, 20 min at 4 C, anti-human IgG secondary
T5 construct: full length, cell surface; also called EGFR+ colon cancer cell line HT-29; HT-29 tumour cell
Protocol: After washing, cells were incubated for a further 20 minutes with anti-human IgG secondary antibodies (Jackson Immunoresearch) and live/dead stain (eFluor 780, Invitrogen) before washing and fixing using CellFix. The amount of antibody bound to each cell type was determined using flow cytometry (MACSQuant Analyser 10, Miltenyi Biotech).

[11] = target: T2, L1 (DV1-GV4), recombinant soluble human …; assay: SPR (Reichert 4SPR): antibody on a Protein A chip, human Vδ1 antigen flowed; column 'Affinity to Vδ1 (nM)'
Protocol: Human Vδ1 antigen was flown over the cell at a 1:3 dilution series with top concentrations of 50 nM with the following parameters: 180s association, 900s dissociation, flow rate 25 μL/min, running buffer PBS+0.05% Tween-20. The chip surface was regenerated using 20 mM phosphoric acid following each injection. All experiments were performed at room temperature. Steady state fitting was determined according to Langmuir 1:1 binding using TraceDrawer software (Reichert Technologies.

EGFR on A431 cells = target: T6, EGFR on A431 cells (human, UniProt P00533 25-1210); assay: EGF blockade by flow cytometry: A431 cells pre-incubated with antibody 30 min at 4 C, then EGF-AF647; EGF binding MFI
T6 construct: whole, on cells; also called EGFR-positive A431; EGFR+A431 target cells
Protocol: Cells were then incubated for 1 hour at 4 degrees C., washed and stained with Live/dead dye (eFluor 520, Fisher) and incubated for a further 20 min at 4 degrees. The cells were washed in FACS buffer and resuspended in Cell Fix (BD sciences) before incubating overnight at 4° C. in the dark.

T2 sequence (main, as listed by the source): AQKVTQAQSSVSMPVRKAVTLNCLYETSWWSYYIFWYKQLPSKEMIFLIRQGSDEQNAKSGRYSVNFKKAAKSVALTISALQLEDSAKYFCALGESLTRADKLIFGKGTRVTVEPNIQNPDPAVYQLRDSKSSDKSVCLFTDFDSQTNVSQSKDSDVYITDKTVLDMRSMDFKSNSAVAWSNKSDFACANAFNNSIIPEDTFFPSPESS
T4 sequence (A0A1B0GX56 22-115 limits assumed, stated change not applied): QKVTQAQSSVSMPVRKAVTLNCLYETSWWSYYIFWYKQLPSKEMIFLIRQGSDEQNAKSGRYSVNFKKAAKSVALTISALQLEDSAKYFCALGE
T1 sequence (delta, as listed by the source limits assumed): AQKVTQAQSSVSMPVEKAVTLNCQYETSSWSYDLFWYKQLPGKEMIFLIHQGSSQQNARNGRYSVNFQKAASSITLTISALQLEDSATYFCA

| Binder | Kd [2] [nM] | EC50 [5] [nM] | EC50 [6] [nM] | Kd [10] [nM] | other results |
| --- | --- | --- | --- | --- | --- |
| B1 |  |  |  |  | Heat Map (Cyno) value (ELISA signal) [1]: 57600 |
| B2 | 115 | 108 | 576 |  | binding result [3]: no binding (tested: 100 nM); Kd [4]: 149 nM |
| B3 |  | > 100 | 226 |  | Kd [7]: 38.1 nM |
| B4 |  | 5.15 | 0.952 |  | Kd [7]: 3.78 nM |
| B5 |  | 37.2 | 2.68 |  | Kd [7]: 4.99 nM |
| B6 |  | 93 | 196 |  | Kd [7]: 1.04 nM |
| B7 |  |  |  | 1.49 | EC50 [8]: 0.276 nM; EC95 [8]: 2.7 nM; EC50 (read off the curve) [9]: ~0.8 nM; EC50 (EGFR on HT-29 cells): 0.537 nM; Kd [11]: 0.24 nM; EC50 (EGFR on A431 cells): 2.92 nM |
| B8 | 0.818 |  |  | 19.2 |  |
| B9 | 0.462 |  |  | 8.63 | EC50 (EGFR on A431 cells): 8.66 nM |
| B10 |  |  |  | 0.655 | EC50 [8]: 0.279 nM; EC95 [8]: 2.77 nM; Kd [11]: 1.26 nM |
| B11 |  |  |  | 2.78 | EC50 [8]: 0.209 nM; EC95 [8]: 2.25 nM; Kd [11]: 18.3 nM |
| B12 | 0.378 |  |  | 1.37 |  |
| B13 | 0.511 |  |  | 2.35 |  |
| B14 | 152 |  |  | 1.14 |  |
| B15 | 0.464 |  |  | 1.35 |  |
